We go through two substances from publication PMC8331139.

Assay [1] addresses PSII core complex of Thalassiosira pseudonana (dimeric core, C2) (Thalassiosira pseudonana (endogenous)) (UniProt A0T0N4). As to the kind of experiment: cryo-EM structure; cryo-electron tomography of unstacked thylakoid membrane vesicles with sub-volume averaging (EMAN2); complexes in situ in the membrane; 578 PSII and 374 PSI sub-volumes; resolution 4.2 nm (PSII) and 3.3 nm (PSI); densities assigned by rigid-body fitting of structures of other species.

For assay [2], the target named is FCPII-S, trimeric fucoxanthin chlorophyll a/c protein antenna of PSII (Thalassiosira pseudonana (endogenous)). The assay is described as above.

In general, stoichiometry N refers to the number of molecules, sites or subunits per partner or assembly. For “FCPII-S, trimeric fucoxanthin chlorophyll a/c protein antenna of PSII (complex)”, the results for the stoichiometry N in assay [1] and in assay [2] were 2 and 3, respectively.

Regarding “PSII core complex of Thalassiosira pseudonana (dimeric core, C2) (from UniProt A0T0N4 1-38)”, the stoichiometry N in assay [1] came out at 2.
